In paper PMC4384115, “Molecular Recognition of PTS-1 Cargo Proteins by Pex5p: Implications for Protein Mistargeting in Primary Hyperoxaluria” (Biomolecules, 2015):
Positions count from the first letter of the chain named. Names may count otherwise.

B1: AGT-LRM: human AGT variant p.P11L/p.G170R/p.I340M, mistargeting PH1 variant (protein, UniProt P21549 1-392, looked up, variant P11L G170R I340M)
Alanine--glyoxylate …: MASHKLLVTPLKALLKPLSIPNQLLLGPGPSNLPPRIMAAGGLQMIGSMSKDMYQIMDEIKEGIQYVFQTRNPLTLVISGSGHCALEAALVNVLEPGDSFLVGANGIWGQRAVDIGERIGARVHPMTKDPGGHYTLQEVEEGLAQHKPVLLFLTHGESSTGVLQPLDGFRELCHRYKCLLLVDSVASLGGTPLYMDRQGIDILYSGSQKALNAPPGTSLISFSDKAKKKMYSRKTKPFSFYLDIKWLANFWGCDDQPRMYHHTIPVISLYSLRESLALIAEQGLENSWRQHREAAAYLHGRLQALGLQLFVKDPALRLPTVTTVAVPAGYDWRDIVSYVMDHFDIEIMGGLGPSTGKVLRIGLLGCNATRENVDRVTEALRAALQHCPKKKL
B2: AGT-LRM-SKL: AGT-LRM with PTS1 mutated to the consensus –SKL C-terminal tripeptide (protein, UniProt P21549 1-392, looked up, variant P11L G170R I340M K390S L392L)
Alanine--glyoxylate …: B1 Alanine--glyoxylate … with K390S

Key:
CHO cells [1] = experiment: Confocal immunofluorescence colocalization of AGT with mitochondria (Mitotracker) in transfected CHO cells; type: cell-based, Chinese hamster; details: transiently transfected CHO cells; for Pearson Rr, AGT + Mitotracker: fixed 72 h after transfection, mean ± S.E.
Experimental: (§1) Chinese hamster ovary (CHO) cells (ATTC, Rockville, MD USA) were grown in alpha-minimal essential medium (α-MEM, Lonza, Köln, Germany) supplemented with glutamine, penicillin/streptomycin and 5% fetal bovine serum. Cell transfections were performed using AGT cDNA variants (AGT-LRM or AGT-LRM-SKL) subcloned in pCIneo plasmids (Promega) with Transfast reagent (Promega, Madison, WI, USA), following manufacturer’s guidelines. After 24 h, cells were passed to plates containing 13 mm glass coverslips for immunofluorescence studies. Mitochondria in half the coverslips were labeled by incubation with Mitotracker (CMXRos, Invitrogen, Carlsbad, CA, USA) at the end of the culture. Cells were fixed with 2% paraformaldehyde 72 h after transfection and immunofluorescence was performed as previously described. Images were acquired with a laser scanning confocal microscope (Olympus Inverted IX81, Tokyo, Japan) using a 60× objective with immersion oil.
(§2) For quantitative immune-colocalization, the system was optimized to detect two fluorescent signals in one specimen: one in the green channel detector for protein of interest AGT-LRM or AGT-LRM-SKL and the other in the red channel, for either mitochondria labeled with mitotracker or peroxisomes labeled with peroxisomal membrane protein 70 (PMP70) antibody. When the two were seen to overlap (colocalization), it was assumed to be due to fluorescently labeled molecules binding to very close or indeed identical spatial positions. Colocalization events (or the lack thereof) were analyzed quantitatively with FluoView software (Olympus, Tokyo, Japan) and ImageJ software (NIH, Bethesda, MD, USA) with the JACoP plugin, based on a global statistic approach that conducts an intensity correlation coefficient-based examination. The Fisher transformation was applied to data obtained from ImageJ as well when calculating the mean values of colocalization coefficients and constructing the respective 95% confidence intervals. Descriptive statistical analysis of colocalization parameters (Pearson’s coefficient, Manders’ overlap coefficient and split Manders’ coefficients) was performed.

CHO cells [2] = experiment: Confocal immunofluorescence colocalization of AGT with peroxisomes (PMP70) in transfected CHO cells; type: cell-based, Chinese hamster; details: for amount of protein localized in peroxisomes / Pearson Rr, AGT + PMP70: transiently transfected CHO cells; for Pearson Rr, AGT + PMP70: fixed 72 h after transfection
Experimental: as §1, §2

| Molecule | colocalization with mitotracker in the mitochondria (CHO cells [1]) [%] | Pearson Rr, AGT + Mitotracker (CHO cells [1]) | Pearson Rr, AGT + Mitotracker (CHO cells [1]; SEM) | % Coloc (Manders' m), AGT + PMP70 (CHO cells [2]; CHO cells, mean ± S.E., given as fraction, split Manders' M1 in situation 2, Manders' overlap R in situation 4, SEM) | amount of protein localized in peroxisomes (CHO cells [2]) [%] | Pearson Rr, AGT + PMP70 (CHO cells [2]; mean ± S.E.) | Pearson Rr, AGT + PMP70 (CHO cells [2]; mean ± S.E., SEM) |
| --- | --- | --- | --- | --- | --- | --- | --- |
| B1 | 92 | 0.90 | 0.90 ± 0.12 | 0.17 ± 0.15 | 17 | 0.39 | 0.39 ± 0.15 |
| B2 | 40 | 0.47 | – | – | 84 | 0.79 | – |
